Test results taken from patent publication US12024555 (VANDERBILT UNIVERSITY, dated 2024).
Numbering of substitutions follows the chain as printed.

T1: recombinant WNV E protein containing only DIII (West Nile virus, UniProt Q9Q6P4 586-694)
T1 construct: domain: DIII
T1 sequence: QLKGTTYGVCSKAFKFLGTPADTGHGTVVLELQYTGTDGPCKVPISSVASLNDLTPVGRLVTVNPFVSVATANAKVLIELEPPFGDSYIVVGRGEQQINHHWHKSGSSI

T2: West Nile virus E protein T64Q variant on RVPs (West Nile virus (WNV1 NY99 strain), UniProt Q9Q6P4 291-791, T64Q)
T2 sequence (looked up): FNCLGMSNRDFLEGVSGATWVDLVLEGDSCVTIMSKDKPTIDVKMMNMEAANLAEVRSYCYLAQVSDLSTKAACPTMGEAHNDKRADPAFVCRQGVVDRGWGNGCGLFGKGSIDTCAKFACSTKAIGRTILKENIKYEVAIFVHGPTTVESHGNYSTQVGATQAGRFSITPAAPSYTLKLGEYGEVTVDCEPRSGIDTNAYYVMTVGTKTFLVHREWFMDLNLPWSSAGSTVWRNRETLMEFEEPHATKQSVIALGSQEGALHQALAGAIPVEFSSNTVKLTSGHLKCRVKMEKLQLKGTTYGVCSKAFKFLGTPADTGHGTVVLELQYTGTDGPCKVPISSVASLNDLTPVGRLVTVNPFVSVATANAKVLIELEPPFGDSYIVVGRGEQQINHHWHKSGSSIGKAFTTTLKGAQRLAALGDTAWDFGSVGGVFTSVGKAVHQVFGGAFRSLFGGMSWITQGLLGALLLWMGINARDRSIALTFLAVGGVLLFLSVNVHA

T3: West Nile virus E protein T208K variant on RVPs (West Nile virus (WNV1 NY99 strain), UniProt Q9Q6P4 291-791, T208K)
T3 sequence (looked up): T2 sequence (looked up) with Q64T, T208K

B1: human mAb WNV-57 (antibody, V domains shown)
VH: QVQLVESGGGVVQPGRSLRLACAASGFTLSDFAIHWVRQAPGKGLEWVAIISYDGNIKYYADSVKGRFTISSDNSKNTVYLQMNSLRAEDTAMYYCARDPDVVETAHDAFDIWGQGTLVTVSS
VL: DILMTQSPSSLSASVGDRVTITCRASQNIKNYLNWYQQKPGKAPKLLIYAASSLQSLVPSRFSGSGSGTDFTLTISSLQPEDFATYYCQQSYSSFRTFGQGTKVEVK
B2: human mAb WNV-10 (antibody, V domains shown)
VH: QVQLVESGGGVVQPGRSLRLSCAASGFTFSSHAMHWVRQAPGKGLEWVAVISYDIINEYYADSVKGRFTISRDNSKNTLYLQMNSLRAEDTAVYYCARDGYFPNSSGEGFFDYWGQGTLVTVSS
VL: EIVMTQSPATLSVSPGERATLSCRASQSLSNNLAWYQQKPGQAPRLLIYGASTRATGIPARFSGSGSGTQFTLTISSLQSEDIAVYYCQQFNNWPWTFGQGTKVEIK
B3: human mAb WNV-86 (antibody, V domains shown)
VH: QVQLVQSGGGLVQPGRSLRLCCAASGFSFDDFAMHWVRQAPGKGLEWVSGINWNSGHIGYADSVKGRFTISRDNAKNSLCLQMNSLRPEDTALYYCAKDRAYYFGSGTSGGAFDVWGQGTLVTVSS
VL: DIVMTQSPSSLSASVGDRVTITCRASQNIISYLNWYQQKPGKAPKLLIYDASSLQSGVPSRFSGSGSGTDFTLTISSLQPEDFATYYCQRSFSTPLTFGGGTKVEIK
B4: human mAb WNV-62 (antibody, V domains shown)
VH: QVQLVESGGGVVQPGRSLRLSCAASGFTFSSYGMHWVRQAPGKGLEWVAVMSYDGSKIYYADSVKGRFTISRDNSKNTLYLQMDSLRAEDTAVYYCAKVGYYDGSRYDLIAEYFQYWGQGTLVTVSS
VL: QSVLTQPPSVSGAAGQRVTISCTGSSSNIGAGYDVHWYQQLPGTAPKLLIYGNNNRPSGVPDRFSGSKSDTSASLAITGLRPEDELDYYCQSYDNRLSAYVFGTGTKVTVL

Experiments:
[1] = biological target: T1, recombinant WNV E protein containing …; assay: ELISA on plate-coated recombinant DIII
[2] = biological target: T2, West Nile virus E protein T64Q variant …; assay: cell-based or functional assay
[3] = biological target: T3, West Nile virus E protein T208K variant …; assay: cell-based or functional assay

Binder | binding result [1] | fold increase in neutralization IC50 relative to WT RVPs [2] [fold] | fold increase in neutralization IC50 relative to WT RVPs [3] [fold]
B1 | no binding | – | –
B2 | no binding | – | –
B3 | – | 88 | 13
B4 | no binding | – | –
